Source: patent EP2658867B1 (Avidbiotics Corp., dated 2018)
Like-named read-outs stand apart in the source and are kept apart here.

Columns and labels:
integrin αVβ5 [1] = target: T1, integrin αVβ5 (UniProt P06756 31-992; P18084 24-719); assay: phage ELISA, integrin coated, anti-M13-HRP
T1 construct: Coated on the ELISA plate

integrin αVβ3 [2] = target: T2, integrin αVβ3 (UniProt P06756 31-992; P05106 27-718); assay: phage ELISA, integrin coated, anti-M13-HRP
T2 construct: Coated on the ELISA plate
T2 sequence (P06756 31-992, chain 1 of 2): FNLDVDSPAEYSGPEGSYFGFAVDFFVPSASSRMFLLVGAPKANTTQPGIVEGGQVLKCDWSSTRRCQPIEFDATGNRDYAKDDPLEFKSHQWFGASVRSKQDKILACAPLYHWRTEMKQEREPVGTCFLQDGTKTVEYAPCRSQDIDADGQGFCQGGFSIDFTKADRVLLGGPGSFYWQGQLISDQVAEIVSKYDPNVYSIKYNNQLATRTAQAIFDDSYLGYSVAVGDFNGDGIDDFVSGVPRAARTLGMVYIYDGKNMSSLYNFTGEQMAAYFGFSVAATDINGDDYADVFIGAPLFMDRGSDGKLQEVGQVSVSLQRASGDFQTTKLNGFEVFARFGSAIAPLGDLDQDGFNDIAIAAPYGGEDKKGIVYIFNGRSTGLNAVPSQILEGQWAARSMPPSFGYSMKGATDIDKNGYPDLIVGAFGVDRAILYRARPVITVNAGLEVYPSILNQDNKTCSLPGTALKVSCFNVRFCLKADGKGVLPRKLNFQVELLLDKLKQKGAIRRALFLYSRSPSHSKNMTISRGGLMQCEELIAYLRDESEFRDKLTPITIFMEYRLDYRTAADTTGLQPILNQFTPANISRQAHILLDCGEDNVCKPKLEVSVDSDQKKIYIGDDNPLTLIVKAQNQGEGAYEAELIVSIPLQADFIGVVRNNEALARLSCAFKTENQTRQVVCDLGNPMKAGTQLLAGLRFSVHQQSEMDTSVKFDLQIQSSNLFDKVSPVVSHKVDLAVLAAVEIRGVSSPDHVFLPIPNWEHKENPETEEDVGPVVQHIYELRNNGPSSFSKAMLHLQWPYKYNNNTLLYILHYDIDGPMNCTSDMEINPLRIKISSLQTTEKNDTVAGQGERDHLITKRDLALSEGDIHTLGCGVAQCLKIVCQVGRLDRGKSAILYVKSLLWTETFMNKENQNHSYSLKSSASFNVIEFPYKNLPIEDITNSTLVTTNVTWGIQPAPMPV
T2 sequence (P05106 27-718, chain 2 of 2): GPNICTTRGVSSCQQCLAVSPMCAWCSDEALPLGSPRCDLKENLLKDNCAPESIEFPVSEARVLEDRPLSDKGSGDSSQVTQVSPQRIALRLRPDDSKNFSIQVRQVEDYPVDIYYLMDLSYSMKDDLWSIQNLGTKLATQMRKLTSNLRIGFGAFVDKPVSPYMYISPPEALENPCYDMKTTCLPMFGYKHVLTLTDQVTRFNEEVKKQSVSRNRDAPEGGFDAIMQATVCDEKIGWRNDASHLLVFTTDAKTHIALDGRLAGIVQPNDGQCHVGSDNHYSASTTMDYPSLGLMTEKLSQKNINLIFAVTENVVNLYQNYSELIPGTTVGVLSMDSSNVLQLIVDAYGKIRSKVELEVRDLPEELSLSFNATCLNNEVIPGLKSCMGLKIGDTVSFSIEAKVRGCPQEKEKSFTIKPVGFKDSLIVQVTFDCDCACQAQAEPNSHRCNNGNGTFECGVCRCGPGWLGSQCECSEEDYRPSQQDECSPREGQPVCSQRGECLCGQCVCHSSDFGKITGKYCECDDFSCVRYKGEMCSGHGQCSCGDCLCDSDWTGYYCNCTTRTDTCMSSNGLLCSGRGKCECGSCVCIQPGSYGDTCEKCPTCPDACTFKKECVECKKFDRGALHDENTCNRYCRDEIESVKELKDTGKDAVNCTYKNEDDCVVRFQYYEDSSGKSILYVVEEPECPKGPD

integrin αVβ5 [3] = target: T1, integrin αVβ5; assay: ELISA, integrin coated, anti-MICA-HRP
integrin αVβ3 [4] = target: T2, integrin αVβ3; assay: ELISA, integrin coated, anti-MICA-HRP
integrin αVβ5 [5] = target: T1, integrin αVβ5; assay: ELISA, integrin coated, anti-MICA-HRP; remark: listed apart in the source
integrin αVβ3 [6] = target: T2, integrin αVβ3; assay: ELISA, integrin coated, anti-MICA-HRP; remark: listed apart in the source

T1 sequence (P06756 31-992, chain 1 of 2): as the sequence (P06756 31-992, chain 1 of 2) above
T1 sequence (P18084 24-719, chain 2 of 2): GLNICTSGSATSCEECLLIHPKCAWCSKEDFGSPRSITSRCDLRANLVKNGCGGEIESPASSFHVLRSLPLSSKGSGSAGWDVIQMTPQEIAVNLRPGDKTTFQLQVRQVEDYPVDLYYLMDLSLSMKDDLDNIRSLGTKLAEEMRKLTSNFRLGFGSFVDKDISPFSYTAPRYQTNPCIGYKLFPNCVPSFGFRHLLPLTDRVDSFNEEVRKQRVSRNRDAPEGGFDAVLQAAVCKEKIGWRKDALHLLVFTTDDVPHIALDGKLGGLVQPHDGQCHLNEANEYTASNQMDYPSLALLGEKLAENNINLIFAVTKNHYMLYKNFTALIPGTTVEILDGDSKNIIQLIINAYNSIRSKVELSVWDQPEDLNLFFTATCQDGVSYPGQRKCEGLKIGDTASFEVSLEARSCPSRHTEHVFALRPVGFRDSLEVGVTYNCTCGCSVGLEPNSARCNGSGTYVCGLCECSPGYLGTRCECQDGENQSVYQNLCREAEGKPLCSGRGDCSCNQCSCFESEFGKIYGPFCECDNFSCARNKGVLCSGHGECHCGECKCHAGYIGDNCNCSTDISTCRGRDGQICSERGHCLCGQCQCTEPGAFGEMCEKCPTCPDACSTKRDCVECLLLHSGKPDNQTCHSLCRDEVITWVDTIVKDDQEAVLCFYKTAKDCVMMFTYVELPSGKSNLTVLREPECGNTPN

| Binder | signal (integrin αVβ5 [1]) [OD] | signal (integrin αVβ3 [2]) [OD] | further results |
| --- | --- | --- | --- |
| M13 phage pKK136 displaying MICA α3 domain with extended 5.1sp in loop 1 and extended 3.2sp in loop 3 (designed binder, not shown: large carriers) TVPPMVNVTSGGSGGGSVTRGDTFTQSSGGSGGGVTCRASGFYPWNITLSWRQDGVSLSHDTQQWGDVLPDGNGTYQTWVATRISGGSGGGSTSRGDHPRTQSGGSGGGCYMEHSGNHSTHPVPSGK | 4.28 | 2.46 |  |
| M13 phage pKK138 displaying MICA α3 domain with extended 5.1sp in loop 1 and extended 5.3sp in loop 3 (designed binder, not shown: large carriers) TVPPMVNVTSGGSGGGSVTRGDTFTQSSGGSGGGVTCRASGFYPWNITLSWRQDGVSLSHDTQQWGDVLPDGNGTYQTWVATRISGGSGGGSHLARGDDLTYSGGSGGGCYMEHSGNHSTHPVPSGK | 2.75 | 0.886 |  |
| M13 phage pKK139 displaying MICA α3 domain with extended 5.1sp in loop 1 and extended 5.1spNH in loop 3 (designed binder, not shown: large carriers) TVPPMVNVTSGGSGGGSVTRGDTFTQSSGGSGGGVTCRASGFYPWNITLSWRQDGVSLSHDTQQWGDVLPDGNGTYQTWVATRISGGSGGGSVTRGDTFTQSSGGSGGGCYMEHSGNHSTHPVPSGK | 5.36 | 2.48 |  |
| soluble MICA generated by pKK46 (extended loop 5.1sp in loop 1) (designed binder) HHHHHHEPHSLRYNLTVLSWDGSVQSGFLTEVHLDGQPFLRCDRQKCRAKPQGQWAEDVLGNKTWDRETRDLTGNGKDLRMTLAHIKDQKEGLHSLQEIRVCEIHEDNSTRSSQHFYYDGELFLSQNLETEEWTMPQSSRAQTLAMNVRNFLKEDAMKTKTHYHAMHADCLQELRRYLKSGVVLRRTVPPMVNVTSGGSGGGSVTRGDTFTQSSGGSGGGVTCRASGFYPWNITLSWRQDGVSLSHDTQQWGDVLPDGNGTYQTWVATRICQGEEQRFTCYMEHSGNHSTHPVPSGK |  |  | signal (integrin αVβ5 [3]): 1.06 OD; signal/ng (integrin αVβ5 [3]): 25.5 signal/ng; signal (integrin αVβ3 [4]): 0.384 OD; signal/ng (integrin αVβ3 [4]): 9.2 signal/ng; signal (integrin αVβ5 [5]): 0.66 OD; signal/ng (integrin αVβ5 [5]): 13.3 signal/ng; signal (integrin αVβ3 [6]): 0.467 OD; signal/ng (integrin αVβ3 [6]): 9.42 signal/ng |
| M13 phage pKK112 displaying MICA α3 domain with tight T-AMY (loop 1 from tendamistat) in loop 1 (designed binder, not shown: large carriers) TVPPMVNYQSWRYSQCRASGFYPWNITLSWRQDGVSLSHDTQQWGDVLPDGNGTYQTWVATRICQGEEQRFTCYMEHSGNHSTHPVPSGK | 0.515 | 0.46 |  |
| M13 phage pKK107 displaying MICA α3 domain with tight T-3.1 in loop 1 (designed binder, not shown: large carriers) TVPPMVNTSRGDHPRTQCRASGFYPWNITLSWRQDGVSLSHDTQQWGDVLPDGNGTYQTWVATRICQGEEQRFTCYMEHSGNHSTHPVPSGK | 1.49 | 0.999 |  |
| M13 phage pKK109 displaying MICA α3 domain with tight T-3.3 in loop 1 (designed binder, not shown: large carriers) TVPPMVNRVPRGDSDLTCRASGFYPWNITLSWRQDGVSLSHDTQQWGDVLPDGNGTYQTWVATRICQGEEQRFTCYMEHSGNHSTHPVPSGK | 0.167 | 0.23 |  |
| M13 phage pKK108 displaying MICA α3 domain with tight T-3.5 in loop 1 (designed binder, α3 amplified from pKK53; also called 1-T-3.5; not shown: M13 phage capsid protein pIII, C-terminal portion, fused at codon position 198) TVPPMVNGSRGDSLIMHCRASGFYPWNITLSWRQDGVSLSHDTQQWGDVLPDGNGTYQTWVATRICQGEEQRFTCYMEHSGNHSTHPVPSGK | -0.204 | -0.09 |  |
| M13 phage pKK111 displaying MICA α3 domain with tight T-5.3 in loop 1 (designed binder, not shown: large carriers) TVPPMVNHLARGDDLTYCRASGFYPWNITLSWRQDGVSLSHDTQQWGDVLPDGNGTYQTWVATRICQGEEQRFTCYMEHSGNHSTHPVPSGK | 0.657 | 0.707 |  |
| M13 phage pKK110 displaying MICA α3 domain with tight T-5.1 in loop 1 (designed binder, not shown: large carriers) TVPPMVNVTRGDTFTQSCRASGFYPWNITLSWRQDGVSLSHDTQQWGDVLPDGNGTYQTWVATRICQGEEQRFTCYMEHSGNHSTHPVPSGK | 2.56 | 1.49 |  |
| M13 phage pKK106 displaying wild type MICA α3 domain fused to pIII (other, also called WT; not shown: M13 phage capsid protein pIII, C-terminal portion, fused at codon position 198) TVPPMVNVTRSEASEGNITVTCRASGFYPWNITLSWRQDGVSLSHDTQQWGDVLPDGNGTYQTWVATRICQGEEQRFTCYMEHSGNHSTHPVPSGK | 0 | 0 |  |
| M13 phage pKK102 displaying MICA α3 domain with extended loop 5.1sp in loop 1 (designed binder, not shown: large carriers) TVPPMVNVTSGGSGGGSVTRGDTFTQSSGGSGGGVTCRASGFYPWNITLSWRQDGVSLSHDTQQWGDVLPDGNGTYQTWVATRICQGEEQRFTCYMEHSGNHSTHPVPSGK | 0.771 | 1.02 | signal (integrin αVβ5 [1]; record 2): 1.5 OD; signal (integrin αVβ3 [2]; record 2): 1.45 OD |
| M13 phage pKK103 displaying MICA α3 domain with extended loop 5.3sp in loop 1 (designed binder, not shown: large carriers) TVPPMVNVTSGGSGGGSHLARGDDLTYSGGSGGGVTCRASGFYPWNITLSWRQDGVSLSHDTQQWGDVLPDGNGTYQTWVATRICQGEEQRFTCYMEHSGNHSTHPVPSGK | 0.491 | 0.688 | signal (integrin αVβ5 [1]; record 2): 0.814 OD; signal (integrin αVβ3 [2]; record 2): 0.587 OD |
| M13 phage pKK104 displaying MICA α3 domain with extended loop 3.2sp in loop 3 (designed binder, not shown: large carriers) TVPPMVNVTRSEASEGNITVTCRASGFYPWNITLSWRQDGVSLSHDTQQWGDVLPDGNGTYQTWVATRISGGSGGGSTSRGDHPRTQSGGSGGGCYMEHSGNHSTHPVPSGK | 1.12 | 0.791 |  |
| M13 phage pKK105 displaying MICA α3 domain with extended loop 3.3sp in loop 3 (designed binder, not shown: large carriers) TVPPMVNVTRSEASEGNITVTCRASGFYPWNITLSWRQDGVSLSHDTQQWGDVLPDGNGTYQTWVATRISGGSGGGSRVPRGDSDLTSGGSGGGCYMEHSGNHSTHPVPSGK | 1.11 | 1.33 |  |
